These results are taken from the supplement of paper PMC10567573.

The data set can be described thus: protein stability index of a GFP-peptide fusion (GPS, HEK-293T) (PSI 1-6); higher = more stable.
[1] abbreviates: treatment: DMSO, c terminus: a fixed tail appended.
Where [2] appears, read: treatment: MLN4924 1 uM, 8 h, c terminus: a fixed tail appended.
Where [3] appears, read: treatment: DMSO, c terminus: native.
The mark [4] stands for this setting: treatment: MLN4924 1 uM, 8 h, c terminus: native.

± gives the standard deviation.
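Also: 24-mer peptide tiles fused after GFP, lentivirally expressed, FACS-sorted into six equal bins by GFP/DsRed ratio, decoded by Illumina sequencing, PSI is the read-weighted mean bin number.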

On to TREKAKFSDGEKCRREAFRRLGNG [PHTF1], for which the protein stability index was 3.65 ± 0.17 under setting [1] and 3.62 ± 0.39 under setting [2].

For the sequence TRKHYQVTGYGINGTGDSNDFWRI [POMT2], the protein stability index is, setting by setting: under setting [1], 2.34 ± 0.25; under setting [2], 2.32 ± 0.28.

In turn, TRRSTAEAFQIVLSHLLGDAGSPY [SPNS1] came in with a protein stability index under setting [1] of 2.52 ± 0.58 and a protein stability index under setting [2] of 2.56 ± 0.46.

Regarding TSDAAFLTQWKDSLVSLVLYNMDL [ZER1], the protein stability index was 2.71 ± 0.52 under setting [1] and 2.56 ± 0.44 under setting [2].

With TSSKPTALPSASSAYFPGQLPNS [SASS6], the protein stability index by setting is: under setting [3], 4.42 ± 0.41; under setting [4], 4.4 ± 0.26.

As to TSSKVNATVPSNMMSVNGQAKTHT [ACBD3], the protein stability index by setting is: under setting [1], 4.38 ± 0.13; under setting [2], 4.45 ± 0.082.

In the case of TSSSLGDKSEYLEMEEGVKESLCA [KCNA4], the protein stability index runs as follows: under setting [1], 5.1 ± 0.14; under setting [2], 4.77 ± 0.41.

With TSSSSSSSRQTRPILKEQSSSSFS [KRT16], the protein stability index is, setting by setting: under setting [1], 4.66 ± 0.14; under setting [2], 4.61 ± 0.11.

As for TTADLDRKLSFSHSDHSSEMSLPE [SPATS1], the protein stability index is, setting by setting: under setting [1], 5.08 ± 0.19; under setting [2], 4.82 ± 0.27.

With TVAGKHQDLKYISPEIMASVLNGK [CDC25A], the protein stability index runs as follows: under setting [1], 3.17 ± 0.2; under setting [2], 3.3 ± 0.32.

As for TWASPAEVVDLTLDEDSRRKYLL [C18orf25], the protein stability index runs as follows: under setting [3], 4.49 ± 0.44; under setting [4], 4.68 ± 0.53.

Sequence TYAMGHLIQRKKVHVFGDELSLVT [TNFSF13B] displayed a protein stability index under setting [1] of 2.32 ± 0.3 and a protein stability index under setting [2] of 2.42 ± 0.21.

As for TYLENKGHRYPCFFNTLHVGGTIR [POP5], the protein stability index is, setting by setting: under setting [1], 2.23 ± 0.14; under setting [2], 2.19 ± 0.052.

Consider VAETSGETIQGFWLLTKIDHWNNE [TPRG1], for which the protein stability index is, setting by setting: under setting [1], 2.11 ± 0.36; under setting [2], 2.31 ± 0.26.

For VALPTEAEFQLVRDVVLCSLLNFL [TENT5C], the protein stability index reads like this: under setting [1], 2.14 ± 0.28; under setting [2], 2.13 ± 0.37.

On to VCQEVLERSRDVVDEVSVSLRLWD [RHOBTB1], for which the protein stability index is, setting by setting: under setting [1], 3.1 ± 0.48; under setting [2], 3.36 ± 0.46.

Consider VDRLPGLQGALDLLAVLCVDGSGR [ZSWIM9], for which the protein stability index runs as follows: under setting [1], 2.01 ± 0.34; under setting [2], 2.27 ± 0.24.

The sequence VDYKQSVLNVAGEAGGKQKAVEEE [SLC6A17] registered a protein stability index under setting [1] of 5.52 ± 0.44 and a protein stability index under setting [2] of 5.68 ± 0.3.

Consider VEVDESEPYPSQLLKPIPEYSPEE [TRAF3IP2], for which the protein stability index under setting [1] was found to be 5.48 ± 0.44 and the protein stability index under setting [2] worked out at 5.46 ± 0.35.

For VFCDMETDGGGWLVFQRRMDGQTD [TNXB], the protein stability index by setting is: under setting [1], 2.9 ± 0.27; under setting [2], 2.98 ± 0.096.

The sequence VFDAMFNGGMATTSAEIELPDVEP [BTBD1] had a protein stability index under setting [1] of 4.68 ± 0.28 and a protein stability index under setting [2] of 4.77 ± 0.24.

On to VFGRGDNISDVSKFLEDDKWMEE [LUC7L3], for which the protein stability index runs as follows: under setting [3], 2.4 ± 0.54; under setting [4], 3.38 ± 0.96.

As for VFISSYMVLAPVFGYLGDRYNRKY [SPNS1], the protein stability index amounted to 3.16 ± 0.49 under setting [1] and 2.87 ± 0.62 under setting [2].

Consider VGESVEEAFYYIHNLVVACEIQVR [ADD1], for which the protein stability index stood at 2.79 ± 0.37 under setting [1] and 2.91 ± 0.72 under setting [2].

For the sequence VGLIQAAQQLLCDEQAPQRQRLLA [DFFB], the protein stability index turned out to be 3.28 ± 0.12 under setting [1] and 3.19 ± 0.12 under setting [2].

In the case of VGSVHVDSGASAITRESHTHRDRP [CSNK1G1], the protein stability index is, setting by setting: under setting [1], 4.85 ± 0.25; under setting [2], 4.66 ± 0.32.

Take VHRLDLILCNKTAYQEVFKPENIS [SMG5]: the protein stability index stood at 2.12 ± 0.48 under setting [1] and 2.15 ± 0.4 under setting [2].

With VHRQLGEANEEFALRVQQLVAKEL [AUP1], the protein stability index was 3.79 ± 0.076 under setting [1] and 3.88 ± 0.1 under setting [2].

As for VIAKPSELTSVTAWMLCKLLDKAG [ALDH8A1], the protein stability index came to 2.3 ± 0.2 under setting [1] and 2.3 ± 0.23 under setting [2].

VKRKKNVLRLCCKKLKIFAMPMQD [PRAME]: the protein stability index under setting [1] was determined as 2.29 ± 0.37 and the protein stability index under setting [2] worked out at 2.2 ± 0.15.

For VLDLQRIFALYSSLKFKSRVPQTW [PLD5], the protein stability index by setting is: under setting [1], 3.19 ± 0.94; under setting [2], 2.09 ± 0.26.

VLKTSRSTPLSPAYISLVEEEDQH [KLHL13]: the protein stability index reads like this: under setting [1], 4.77 ± 0.13; under setting [2], 4.91 ± 0.17.

Take VLKVLSVCSSNKPAIVEAGGMQAL [CTNNB1]: the protein stability index by setting is: under setting [1], 2.46 ± 0.24; under setting [2], 2.46 ± 0.098.

As to VLMVGPNFRVGKKIGCGNFGELRL [CSNK1G1], the protein stability index is, setting by setting: under setting [1], 2.42 ± 0.053; under setting [2], 2.69 ± 0.61.

For the sequence VLRCQLGDRLNVEVDAAPPVDLNK [KRT36], the protein stability index reads like this: under setting [1], 4.06 ± 0.11; under setting [2], 4.14 ± 0.25.

For the sequence VLSEGSPLTEQEESSPSHDRSRTV [SRPK2], the protein stability index is 5.35 ± 0.33 under setting [1] and 5.32 ± 0.25 under setting [2].

With VMEIQKQIEKKEKKLHKIQNKAQR [TAF7L], the protein stability index is 4.13 ± 0.088 under setting [1] and 4.36 ± 0.21 under setting [2].

In the case of VNARQKQGIYEEYEDIRRENPVGT [PTPN9], the protein stability index under setting [1] was found to be 4.83 ± 0.37 and the protein stability index under setting [2] worked out at 4.96 ± 0.29.

Consider VNPQDGTNTLTRIAENGVSERDSE [EHMT1], for which the protein stability index runs as follows: under setting [1], 5.56 ± 0.22; under setting [2], 5.51 ± 0.11.

Consider VNSTLKELRRLFLVQDLVDSLKFA [RTN1], for which the protein stability index reads like this: under setting [1], 2.44 ± 0.27; under setting [2], 2.4 ± 0.23.

As for VPIKPPCIPNGKENFSGGTSLWQN [CAMK2D], the protein stability index runs as follows: under setting [1], 2.65 ± 0.12; under setting [2], 2.71 ± 0.57.

Take VPQLVTGRCATRAFHRKSHSLDLN [RNF180]: the protein stability index runs as follows: under setting [1], 2.35 ± 0.2; under setting [2], 2.6 ± 0.41.

As for VQLRFCGRQPCGRFLRAYREGALR [TRADD], the protein stability index by setting is: under setting [1], 2.61 ± 0.53; under setting [2], 2.29 ± 0.65.

In the case of VQRHLYLQDVIMQVADVPEKPRVP [ZNF511], the protein stability index is, setting by setting: under setting [1], 2.8 ± 0.2; under setting [2], 2.9 ± 0.29.

For VQVLTMGNDTSPSEGTNLNAPNSL [HNF4A], the protein stability index reads like this: under setting [1], 3.97 ± 0.17; under setting [2], 4.02 ± 0.18.

For VRAKGSQSGRHLQTHSNTIVVSLQ [STX5], the protein stability index by setting is: under setting [1], 2.48 ± 0.24; under setting [2], 2.64 ± 0.075.

As for VRSRLEEAGIKVHDVRLNGSAAGH [TENT5C], the protein stability index was 2.85 ± 0.43 under setting [1] and 3.21 ± 0.64 under setting [2].

In turn, VSGLLVGYELGIISGALLQIKTLL [SLC2A12] gave a protein stability index under setting [2] of 2.97 ± 1.2.

Turning to VSHVFMLLFNVKSPTDIQDSSIIR [RHOBTB3], the protein stability index reads like this: under setting [1], 2.81 ± 0.56; under setting [2], 2.64 ± 0.48.

As for VSIMYLVLVLAVQVHAWQLYYSKK [JAGN1], the protein stability index reads like this: under setting [1], 2.98 ± 0.67; under setting [2], 3.27 ± 0.16.

As to VSTWFANARRRLKKENKMTWAPKN [IRX6], the protein stability index is, setting by setting: under setting [1], 2.57 ± 0.22; under setting [2], 2.75 ± 0.13.

In the case of VTDYFFTLVQREEPLRILSKYHRF [CDS2], the protein stability index under setting [1] turned out to be 2.45 ± 0.21 and the protein stability index under setting [2] is 2.42 ± 0.28.

Take VTLAAHFLGLGAPNCLSMGSRCLK [ZBED1]: the protein stability index is, setting by setting: under setting [1], 2.26 ± 0.37; under setting [2], 2.19 ± 0.21.
